Source: publication PMC7337067, “Cryo-electron microscopic and X-ray crystallographic analysis of the light-driven proton pump proteorhodopsin reveals a pentameric assembly” (Journal of Structural Biology: X, 2020)

Molecular target: the molecule itself
Assay: crystal structure; 3D crystals of purified GPR, 50 mM MES pH 6, 25 mM MnCl2, 30% PEG 400; anisotropic diffraction to 4.44 Å; molecular replacement with pentameric HOT75BPR (PDB 4KLY); no atomic model built

B1: green-light absorbing proteorhodopsin (GPR), untagged (natural protein, γ-proteobacterium)
chain: MAGGGDLDASDYTGVSFWLVTAALLASTVFFFVERDRVSAKWKTSLTVSGLVTGIAFWHYMYMRGVWIETGDSPTVFRYIDWLLTVPLLICEFYLILAAATNVAGSLFKKLLVGSLVMLVFGYMGEAGIMAAWPAFIIGCLAWVYMIYELWAGEGKSACNTASPAVQSAYNTMMYIIIFGWAIYPVGYFTGYLMGDGGSALNLNLIYNLADFVNKILFGLIIWNVAVKESSNA
modifications: all-trans retinal covalently linked via a Schiff base to a conserved lysine
notes: N-terminal methionine added to the construct; theoretical MW of the monomer 25.5 kDa; Stop codon placed before the HRV 3C site and decahistidine-tag of pZUDF21, so no tag on the protein; Pentamer by crystallography and cryo-EM; also called untagged GPR; tag-free GPR; source: E. coli BL21(DE3) Rosetta2 (pZUDF21stop); purified from Cymal-5 solubilized membranes (Q Sepharose IEC, Superdex 200 SEC); …
stoichiometry N: 5
